Measured values from patent US20220372155A1 (LYVGEN BIOPHARMA, published 2022).

T1: human B7H4 expressed on CHO cells (human, UniProt Q7Z7D3 25-282)
T1 construct: whole, on cells; also called VCTN1
T1 sequence (looked up): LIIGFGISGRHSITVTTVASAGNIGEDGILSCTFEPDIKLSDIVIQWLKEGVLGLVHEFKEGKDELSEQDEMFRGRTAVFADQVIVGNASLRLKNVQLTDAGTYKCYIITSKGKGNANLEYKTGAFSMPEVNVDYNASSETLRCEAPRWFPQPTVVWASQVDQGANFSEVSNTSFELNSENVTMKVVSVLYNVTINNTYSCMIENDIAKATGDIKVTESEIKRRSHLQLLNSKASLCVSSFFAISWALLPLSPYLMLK

B1: Ly475 (bispecific antibody, human IgG1, kappa)
heavy: EVQLVESGGDLVKPGGSLKLSCAASGFTFSSYGMSWVRQTPDKRLEWVAAISTGGSYTYYPDSVKGRFTISRDTATNTLYLQMSTLKSEDTAMYYCTRRGATGSWFAYWGQGTLVTVSAASTKGPSVFPLAPSSKSTSGGTAALGCLVKDYFPEPVTVSWNSGALTSGVHTFPAVLQSSGLYSLSSVVTVPSSSLGTQTYICNVNHKPSNTKVDKKVEPKSCDKTHTCPPCPAPELLGPSVFLFPPKPKDTLMISRTPEVTCVVVDVSHEDPEVKFNWYVDGVEVHNAKTKPREEQYNSTYRVVSVLTVLHQDWLNGKEYKCKVSNKALPAPIEKTISKAKGQPREPQVYTLPPSREEMTKNQVSLTCLVKGFYPSDIAVEWESNGQPENNYKTTPPVLDSDGSFFLYSKLTVDKSRWQQGNVFSCSVMHEALHNHYTQKSLSLSPGGGGGSGGGGSGGGGSGGGGSQVQLVESGGGLVQPGGSLKLSCATSGFNFNDYFMNWVRQASGKGLEWVGQIRNKNYNYATYYTESLEGRVTISRDDSKNTAYLQMNSLKTEDTAVYYCTSYYYDGFADYFDYWGQGTTVTVSSGGGGSGGGGSGGGGSGGGGSDIQMTQSPSSLSASVGDRVTITCKASQNIYIYLNWYQQKPGKAPKLLIYNTNNLQTGVPSRFSGSGSGTDFTLTISSLQPEDFATYYCLQHSSRRTFGGGTKVEIK
light: DILMTQSPSSMSVSLGDTVSITCHASQGINNNIGWLQRKPGKSFKGLIYHGTNLEDGVPSRFSGSGSGADYSLTISSLESEDFADYYCVQYVQFPRTFGGGTKLEIKRTVAAPSVFIFPPSDEQLKSGTASVVCLLNNFYPREAKVQWKVDNALQSGNSQESVTEQDSKDSTYSLSSTLTLSKADYEKHKVYACEVTHQGLSSPVTKSFNRGEC
notes: Ly361 HC (IgG1 mutated Fc)-TM740 scFv VH-VL + Ly361 LC
B2: Ly478 (bispecific antibody, human IgG1, kappa)
heavy: EVQLVESGGDLVKPGGSLKLSCAASGFTFSSYGMSWVRQTPDKRLEWVAAISTGGSYTYYPDSVKGRFTISRDTATNTLYLQMSTLKSEDTAMYYCTRRGATGSWFAYWGQGTLVTVSAASTKGPSVFPLAPSSKSTSGGTAALGCLVKDYFPEPVTVSWNSGALTSGVHTFPAVLQSSGLYSLSSVVTVPSSSLGTQTYICNVNHKPSNTKVDKKVEPKSCDKTHTCPPCPAPELLGPSVFLFPPKPKDTLMISRTPEVTCVVVDVSHEDPEVKFNWYVDGVEVHNAKTKPREEQYNSTYRVVSVLTVLHQDWLNGKEYKCKVSNKALPAPIEKTISKAKGQPREPQVYTLPPSREEMTKNQVSLTCLVKGFYPSDIAVEWESNGQPENNYKTTPPVLDSDGSFFLYSKLTVDKSRWQQGNVFSCSVMHEALHNHYTQKSLSLSPGGGGGSGGGGSGGGGSGGGGSDIQMTQSPSSLSASVGDRVTITCLASEDISNDLAWYQQKPGKAPKLLIYFVDRLLDGVPSRFSGSGSGTDFTLTISSLQPEDFATYYCQQSYKYPPTFGQGTKLEIKGGGGSGGGGSGGGGSGGGGSEVQLVESGGGLVQPGGSLRLSCAASGFTFTNYGLHWVRQAPGKGLEWVSSISPSGGVTYYRDSVKGRFTISRDNSKNTLYLQMNSLRAEDTAVYYCAKPFLGWGGANWIAHWGQGTLVTVSS
light: B1 light
notes: Ly361 HC (IgG1 mutated Fc)-TM559 (printed TM599) scFv VL-VH + Ly361 LC
B3: Ly820 (bispecific antibody, human IgG1, kappa)
heavy: QVTLKESGPALVKPTQTLTLTCTFSGFSLSTSGTCVSWIRQPPGKALEWLATICWEDSKGYNPSLKSRLTISKDTSKNQAVLTMTNMDPVDTATYYCARREDSGYFWFPYWGQGTLVTVSSASTKGPSVFPLAPSSKSTSGGTAALGCLVKDYFPEPVTVSWNSGALTSGVHTFPAVLQSSGLYSLSSVVTVPSSSLGTQTYICNVNHKPSNTKVDKKVEPKSCDKTHTCPPCPAPELLGPSVFLFPPKPKDTLMISRTPEVTCVVVDVSHEDPEVKFNWYVDGVEVHNAKTKPREEQYNSTYRVVSVLTVLHQDWLNGKEYKCKVSNKALPAPIEKTISKAKGQPREPQVYTLPPSREEMTKNQVSLTCLVKGFYPSDIAVEWESNGQPENNYKTTPPVLDSDGSFFLYSKLTVDKSRWQQGNVFSCSVMHEALHNHYTQKSLSLSPGK
light: NIQMTQSPSSLSASVGDRVTITCKAGQNVNNYLAWYQQKPGKAPKVLIFNANSLQTGVPSRFSGSGSGTDFTLTISSLQPEDFATYYCQQYNSWPTFGGGTKVEIKRTVAAPSVFIFPPSDEQLKSGTASVVCLLNNFYPREAKVQWKVDNALQSGNSQESVTEQDSKDSTYSLSSTLTLSKADYEKHKVYACEVTHQGLSSPVTKSFNRGECGGGGSGGGGSGGGGSGGGGSEVQLVESGGGLVQPGGSLRLSCAASGFTFTNYGLHWVRQAPGKGLEWVSSISPSGGVTYYRDSVKGRFTISRDNSKNTLYLQMNSLRAEDTAVYYCAKPFLGWGGANWIAHWGQGTLVTVSSGGGGSGGGGSGGGGSGGGGSDIQMTQSPSSLSASVGDRVTITCLASEDISNDLAWYQQKPGKAPKLLIYFVDRLLDGVPSRFSGSGSGTDFTLTISSLQPEDFATYYCQQSYKYPPTFGQGTKLEIK
notes: Ly516 HC (IgG1 mutated Fc) + Ly516 LC-TM559 scFv VH-VL
B4: Ly342 (bispecific antibody, human IgG1, kappa)
heavy: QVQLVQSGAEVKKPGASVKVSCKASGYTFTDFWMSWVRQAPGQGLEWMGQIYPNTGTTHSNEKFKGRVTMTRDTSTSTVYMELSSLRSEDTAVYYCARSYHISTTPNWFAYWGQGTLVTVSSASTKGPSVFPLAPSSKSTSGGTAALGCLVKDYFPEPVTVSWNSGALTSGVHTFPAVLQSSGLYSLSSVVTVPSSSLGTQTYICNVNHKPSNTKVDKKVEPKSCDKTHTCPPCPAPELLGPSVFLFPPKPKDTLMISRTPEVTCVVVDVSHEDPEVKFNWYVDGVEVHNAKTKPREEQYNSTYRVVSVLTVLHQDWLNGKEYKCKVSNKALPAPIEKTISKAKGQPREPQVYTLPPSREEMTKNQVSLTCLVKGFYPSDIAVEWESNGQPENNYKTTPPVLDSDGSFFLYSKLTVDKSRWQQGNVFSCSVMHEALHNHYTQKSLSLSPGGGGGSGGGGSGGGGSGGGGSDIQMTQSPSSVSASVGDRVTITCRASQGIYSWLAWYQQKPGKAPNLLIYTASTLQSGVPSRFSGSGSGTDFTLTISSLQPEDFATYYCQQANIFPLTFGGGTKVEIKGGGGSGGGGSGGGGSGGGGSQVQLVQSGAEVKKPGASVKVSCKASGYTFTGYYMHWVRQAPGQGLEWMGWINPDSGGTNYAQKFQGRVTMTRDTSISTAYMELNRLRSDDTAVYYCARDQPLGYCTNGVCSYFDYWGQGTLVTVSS
light: DIQMTQSPSSLSASVGDRVTITCKASQNVYKKLEWYQQKPGKVPKVLIYHTNILQTGVPSRFSGSGSGTDYTLTISSLQPEDVATYYCYQWNSGPTFGGGTKVEIKRTVAAPSVFIFPPSDEQLKSGTASVVCLLNNFYPREAKVQWKVDNALQSGNSQESVTEQDSKDSTYSLSSTLTLSKADYEKHKVYACEVTHQGLSSPVTKSFNRGEC
notes: Ly076 HC (IgG1 mutated Fc)-Ly253 scFv VL-VH + Ly076 LC
B5: Ly344 (bispecific antibody, human IgG1, kappa)
heavy: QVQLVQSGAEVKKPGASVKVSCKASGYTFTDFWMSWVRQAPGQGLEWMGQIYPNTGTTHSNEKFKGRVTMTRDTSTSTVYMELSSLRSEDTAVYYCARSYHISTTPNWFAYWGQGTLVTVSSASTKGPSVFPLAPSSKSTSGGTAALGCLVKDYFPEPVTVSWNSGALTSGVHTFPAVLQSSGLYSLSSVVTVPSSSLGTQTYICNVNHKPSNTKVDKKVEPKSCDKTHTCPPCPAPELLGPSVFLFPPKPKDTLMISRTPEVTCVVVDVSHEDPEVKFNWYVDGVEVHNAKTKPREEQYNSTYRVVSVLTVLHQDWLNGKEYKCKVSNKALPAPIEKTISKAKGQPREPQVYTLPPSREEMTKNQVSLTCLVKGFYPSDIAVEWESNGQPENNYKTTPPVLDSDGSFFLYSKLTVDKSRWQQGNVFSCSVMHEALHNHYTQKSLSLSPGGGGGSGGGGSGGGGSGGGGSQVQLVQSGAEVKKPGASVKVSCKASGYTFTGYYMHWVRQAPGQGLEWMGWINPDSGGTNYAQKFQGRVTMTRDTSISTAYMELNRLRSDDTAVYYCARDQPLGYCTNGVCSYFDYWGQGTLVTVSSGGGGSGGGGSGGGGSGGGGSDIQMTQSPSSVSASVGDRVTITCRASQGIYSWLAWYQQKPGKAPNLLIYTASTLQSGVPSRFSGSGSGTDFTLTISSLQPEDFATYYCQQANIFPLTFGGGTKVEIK
light: B4 light
notes: Ly076 HC (IgG1 mutated Fc)-Ly253 scFv VH-VL + Ly076 LC
B6: Ly343 (bispecific antibody, human IgG1, kappa)
heavy: QVQLVQSGAEVKKPGASVKVSCKASGYTFTDFWMSWVRQAPGQGLEWMGQIYPNTGTTHSNEKFKGRVTMTRDTSTSTVYMELSSLRSEDTAVYYCARSYHISTTPNWFAYWGQGTLVTVSSASTKGPSVFPLAPSSKSTSGGTAALGCLVKDYFPEPVTVSWNSGALTSGVHTFPAVLQSSGLYSLSSVVTVPSSSLGTQTYICNVNHKPSNTKVDKKVEPKSCDKTHTCPPCPAPELLGPSVFLFPPKPKDTLMISRTPEVTCVVVDVSHEDPEVKFNWYVDGVEVHNAKTKPREEQYNSTYRVVSVLTVLHQDWLNGKEYKCKVSNKALPAPIEKTISKAKGQPREPQVYTLPPSREEMTKNQVSLTCLVKGFYPSDIAVEWESNGQPENNYKTTPPVLDSDGSFFLYSKLTVDKSRWQQGNVFSCSVMHEALHNHYTQKSLSLSPG
light: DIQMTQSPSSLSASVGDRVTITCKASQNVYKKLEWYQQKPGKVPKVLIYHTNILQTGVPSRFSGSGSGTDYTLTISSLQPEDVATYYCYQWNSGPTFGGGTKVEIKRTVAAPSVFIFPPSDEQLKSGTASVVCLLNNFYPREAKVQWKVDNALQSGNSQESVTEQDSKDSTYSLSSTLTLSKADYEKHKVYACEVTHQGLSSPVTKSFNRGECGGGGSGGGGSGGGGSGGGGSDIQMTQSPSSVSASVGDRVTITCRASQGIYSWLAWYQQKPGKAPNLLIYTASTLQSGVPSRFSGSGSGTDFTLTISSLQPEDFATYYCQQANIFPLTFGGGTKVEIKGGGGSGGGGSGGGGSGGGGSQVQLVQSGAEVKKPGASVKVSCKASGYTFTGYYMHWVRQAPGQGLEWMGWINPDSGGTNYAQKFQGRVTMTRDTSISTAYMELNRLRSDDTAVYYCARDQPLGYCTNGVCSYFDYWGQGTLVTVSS
notes: Ly076 HC (IgG1 mutated Fc) + Ly076 LC-Ly253 scFv VL-VH
B7: Ly345 (bispecific antibody, human IgG1, kappa)
heavy: B6 heavy
light: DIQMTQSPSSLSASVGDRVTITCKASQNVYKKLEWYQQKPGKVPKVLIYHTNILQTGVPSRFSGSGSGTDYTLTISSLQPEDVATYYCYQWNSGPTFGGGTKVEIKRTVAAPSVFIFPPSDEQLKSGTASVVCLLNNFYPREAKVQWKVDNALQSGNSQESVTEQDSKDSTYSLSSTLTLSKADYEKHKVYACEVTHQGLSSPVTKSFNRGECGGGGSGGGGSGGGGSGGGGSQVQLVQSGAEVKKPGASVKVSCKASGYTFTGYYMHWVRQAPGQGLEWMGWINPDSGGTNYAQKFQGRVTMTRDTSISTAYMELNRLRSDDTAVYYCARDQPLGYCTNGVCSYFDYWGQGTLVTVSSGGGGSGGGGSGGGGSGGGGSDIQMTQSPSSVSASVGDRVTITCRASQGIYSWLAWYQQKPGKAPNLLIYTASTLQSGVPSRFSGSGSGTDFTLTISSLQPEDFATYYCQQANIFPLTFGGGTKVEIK
notes: Ly076 HC (IgG1 mutated Fc) + Ly076 LC-Ly253 scFv VH-VL

target: T2, Human CD40 ECD protein (mouse IgG2a Fc tag) (human, UniProt P25942 21-193); experiment: bridging ELISA, coated B7H4, soluble CD40 ECD-mFc
T2 construct: extracellular domain; also called Human CD40-msFc; human recombinant CD40; not shown: mouse IgG2a Fc tag
Description: Anti-B7H4/CD40 bi-specific antibodies were analyzed by ELISA for their simultaneous binding to recombinant human B7H4 and human CD40. Briefly, human B7H4 protein was diluted and coated onto an ELISA plate with a volume of […] by incubation at 4° C. overnight. The next day, the plate was blocked by PBST-BSA buffer, then serially diluted samples of anti-B7H4/CD40 bi-specific antibodies were pipetted into appropriate wells at 50 μL/well, and the plate was incubated for 1 h followed by Washing. Human CD40 ECD protein (mouse IgG2a Fc tag) was added into the plate at 50 μL/well. After 1-hour incubation at room temperature, HRP-conjugated anti-mouse IgG (H+L) antibody was added into the plate at 100 μL/well. The plate was incubated for 1 hour at room temperature followed by washing. TMB substrate solution was added at 100 μL/well and the color development was stopped by adding 100 uL/well Stop Solution (2N H2SO4). Absorbance at 450 nm and 620 nm was read by Tecan F200 Pro plate reader. GraphPad 7.0, “[Agonist] vs. response—Variable slope (four parameters)” was used to plot the binding data and calculate binding EC50 values.

T2 sequence (P25942 21-193): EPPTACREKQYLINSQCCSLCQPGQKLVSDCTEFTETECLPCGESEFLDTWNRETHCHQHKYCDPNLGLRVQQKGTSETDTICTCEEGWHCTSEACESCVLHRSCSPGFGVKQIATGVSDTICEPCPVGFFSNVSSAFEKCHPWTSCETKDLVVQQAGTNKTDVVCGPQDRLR

Row | binding result | Binder
1 | binds | B1
2 | binds | B2

target: T1, human B7H4 expressed on CHO cells; experiment: FACS, CHO cells

Row | binding result | Binder
3 | binds | B1
4 | binds | B2

target: T3, human PD-1 expressed on CHO cells (human, UniProt Q15116 25-288); experiment: FACS, CHO cells
T3 construct: whole, on cells; also used for human PD-1 on Jurkat reporter cells; also called Jurkat/NFkB-Luci/PD-1 cells
T3 sequence (Q15116 25-288): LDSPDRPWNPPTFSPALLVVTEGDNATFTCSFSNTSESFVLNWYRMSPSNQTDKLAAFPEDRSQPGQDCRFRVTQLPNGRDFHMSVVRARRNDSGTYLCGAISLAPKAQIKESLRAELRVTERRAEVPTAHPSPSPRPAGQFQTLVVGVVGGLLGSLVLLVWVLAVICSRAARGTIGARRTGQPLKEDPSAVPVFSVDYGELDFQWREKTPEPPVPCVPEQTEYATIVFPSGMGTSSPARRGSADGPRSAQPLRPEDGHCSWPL

Row | binding result | Binder
5 | binds | B3

target: T4, human CD40 expressed on CHO cells (human, UniProt P25942 21-277); experiment: FACS, CHO cells
T4 construct: whole, on cells; also used for the reporter cells over-expressing human CD40; also called cellular CD40; CHO-CD40 cells
T4 sequence (P25942 21-277): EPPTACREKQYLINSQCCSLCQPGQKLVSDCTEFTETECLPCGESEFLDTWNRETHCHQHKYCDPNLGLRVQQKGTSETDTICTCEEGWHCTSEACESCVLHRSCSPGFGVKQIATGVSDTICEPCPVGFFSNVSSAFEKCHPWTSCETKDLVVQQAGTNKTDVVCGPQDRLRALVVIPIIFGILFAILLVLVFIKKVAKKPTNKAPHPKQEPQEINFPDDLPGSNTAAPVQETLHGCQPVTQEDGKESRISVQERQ

Row | binding result | Binder
6 | binds | B4
7 | binds | B5
8 | binds | B1
9 | binds | B2
10 | binds | B6
11 | binds | B7
12 | binds | B3

target: T5, Ly090 (human CD40 ECD protein with His tag) (human, UniProt P25942 21-193); experiment: bridging ELISA, coated CD40 ECD-His, soluble PD-L1 ECD-mFc
T5 construct: extracellular domain; also called human CD40 ECD protein (His tag); recombinant human CD40; not shown: His tag
Description: Exemplary anti-PD-L1/CD40 bi-specific antibodies were analyzed by ELISA for their simultaneous binding to recombinant human PD-L1 and human CD40. Briefly, Ly090 (human CD40 ECD protein with His tag) was diluted and coated onto an ELISA plate with a volume of 100 μL/well by incubation at 4° C. overnight. The next day, the plate was blocked by PBST-BSA buffer, then serially diluted samples of anti-PD-L1/CD40 bi-specific antibodies were pipetted into appropriate wells at 50 μL/well, and the plate was incubated for 1 h followed by Washing. Human PD-L1 ECD protein (mouse IgG2a Fc tag) was added into the plate at 50 μL/well. After 1-hour incubation at room temperature, HRP-conjugated anti-Mouse IgG, Fc G2a antibody was added into the plate at 100 μL/well. The plate was incubated for 1 hour at room temperature followed by washing. TMB substrate solution was added at 100 μL/well and the color development was stopped by adding 100 uL/well Stop Solution (2N H₂SO₄). Absorbance at 450 nm and 620 nm was read by Tecan F200 Pro plate reader. GraphPad 7.0, “[Agonist] vs. response—Variable slope (four parameters)” was used to plot the binding data and calculate binding EC50 values.

T5 sequence (P25942 21-193): as the sequence (P25942 21-193) above

Row | binding result | Binder
13 | binds | B4
14 | binds | B5
15 | binds | B6
16 | binds | B7
